Results published in patent US20170165337A1 (IMMATICS BIOTECHNOLOGIES, published 2017).

Each binder was assayed against T1, HLA-A*02:01 (human) (assay: UV peptide-exchange ELISA).
T1 construct: MHC class I monomer of the UV-ligand exchange assay; also called peptide-receptive MHC molecules; MHC class I
Excerpt: Candidate peptides for T cell based therapies according to the present invention were further tested for their MHC binding capacity (affinity). The individual peptide-MHC complexes were produced by UV-ligand exchange, where a UV-sensitive peptide is cleaved upon UV-irradiation, and exchanged with the peptide of interest as analyzed. Only peptide candidates that can effectively bind and stabilize the peptide-receptive MHC molecules prevent dissociation of the MHC complexes. To determine the yield of the exchange reaction, an ELISA was performed based on the detection of the light chain (β2m) of stabilized MHC complexes. The assay was performed as generally described in Rodenko et al. (Rodenko et al., 2006).
96 well MAXISorp plates (NUNC) were coated over night with 2 ug/ml streptavidin in PBS at room temperature, washed 4× and blocked forl h at 37° C. in 2% BSA containing blocking buffer. Refolded HLA-A*02:01/MLA-001 monomers served as standards, covering the range of 15-500 ng/ml. Peptide-MHC monomers of the UV-exchange reaction were diluted 100 fold in blocking buffer. Samples were incubated for 1 h at 37° C., washed four times, incubated with 2 ug/ml HRP conjugated anti-β2m for 1 h at 37° C., washed again and detected with TMB solution that is stopped with […]. Absorption was measured at 450 nm. Candidate peptides that show a high exchange yield (preferably higher than 50%, most preferred higher than 75%) are generally preferred for a generation and production of antibodies or fragments thereof, and/or T cell receptors or fragments thereof, as they show sufficient avidity to the MHC molecules and prevent dissociation of the MHC complexes.

peptide exchange yield [%]	Binder
≥ 75	GLQENLDVVV
50 to 75	ALWAGLLTL
≥ 75	FLLNLQNCHL
50 to 75	GLDDLLLFL
50 to 75	FLAEASVMTQL
50 to 75	AMEALVVEV
50 to 75	AMNISVPQV
≥ 75	FMHQIIDQV
50 to 75	VMQDIVYKL
50 to 75	ILLKTEGINL
≥ 75	YQLELHGIEL
≥ 75	YMFEEVPIVI
50 to 75	FLYIRQLAI
50 to 75	ALLNLLESA
50 to 75	GLVETELQL
≥ 75	YLGGFALSV
50 to 75	ALWDPVIEL
≥ 75	YLQEVPILTL
10 to 20	ALVSTIIMV
20 to 50	GIIDINVRL
50 to 75	YIQEYLTLL
50 to 75	ALVDPGPDFVV
≥ 75	YLDNVLAEL
50 to 75	ALHRPDVYL
50 to 75	LIDVKPLGV
50 to 75	ALPEILFAKV
≥ 75	ALYLTEVFL

peptide exchange yield [%]	Binder
10 to 20	YLLLQTYVL
50 to 75	ALDEPPYLTV
50 to 75	ALWELSLKI
50 to 75	ALWVSQPPEI
50 to 75	ILQERELLPV
50 to 75	WLAGDVPAA
50 to 75	FLQDSKVIFV
50 to 75	FLGGLSPGV
50 to 75	IIADLDTTIMFA
50 to 75	ILQAELPSL
≥ 75	YLVELSSLL
50 to 75	YLDLSNNRL
50 to 75	GLSQANFTL
50 to 75	KLLVQDFFL
≥ 75	YVDDVFLRV
20 to 50	GLDDAEYAL
50 to 75	QVMEKLAAV
50 to 75	ALLSSQLAL
50 to 75	ILAGEMLSV
50 to 75	GLLQINDKIAL
50 to 75	HMQDVRVLL
20 to 50	ALGEEWKGYVV
50 to 75	YIFDGSDGGV
50 to 75	GLLESGRHYL
50 to 75	RLQELTEKL
50 to 75	YLTFLPAEV
50 to 75	ILARDILEI
